Laboratory results as given in patent US20160195541A1.
Several values for one entry are separate records, joined by “and”; a condition that tells them apart may be missing. Equal entries are not always repeated.

Key:
[1] = biological target: membrane-bound human FcγRIIB on Raji cells (human) (UniProt P31994); assay: FACS on Raji cells (FACS021), constant aggregated IgG; no competitor (IMP series)
[2] = biological target: membrane-bound human FcγRIIB on Raji cells (human) (UniProt P31994); assay: FACS on viable Raji cells (FcγRIIB) with aggregated Beriglobin and no SM101; detected with anti-human IgG(H+L)-PE secondary antibody
[3] = biological target: membrane-bound human FcγRIIB on Raji cells (human) (UniProt P31994); assay: FACS on Raji cells (FACS021), constant aggregated IgG; competitor SM101 Ref. Std. 0.5 µg/µL
[4] = biological target: membrane-bound human FcγRIIB on Raji cells (human) (UniProt P31994); assay: FACS on Raji cells (FACS021), constant aggregated IgG; competitor SM101 IMP 0.125 µg/µL
[5] = biological target: membrane-bound human FcγRIIB on Raji cells (human) (UniProt P31994); assay: FACS on Raji cells (FACS007), constant aggregated IgG; competitor SM101 0.5 µg/µL
[6] = biological target: membrane-bound human FcγRIIB on Raji cells (human) (UniProt P31994); assay: FACS on Raji cells (FACS007), constant aggregated IgG; competitor SM101 0.0156 µg/µL
[7] = biological target: membrane-bound human FcγRIIB on Raji cells (human) (UniProt P31994); assay: FACS: 0.1E6 Raji cells (FcγRIIB) with 2.5 µg aggregated Beriglobin at the stated pH; 1/200 anti-human IgG(H+L)-PE; secondary antibody alone in this panel 173; pH 6.7
[8] = biological target: membrane-bound human FcγRIIB on Raji cells (human) (UniProt P31994); assay: FACS: 0.1E6 Raji cells (FcγRIIB) with 2.5 µg aggregated Beriglobin at the stated pH; 1/200 anti-human IgG(H+L)-PE; drawn table, secondary antibody control not subtracted; pH 6.5
[9] = biological target: membrane-bound human FcγRIIB on Raji cells (human) (UniProt P31994); assay: FACS on Raji cells (FcγRIIB) with constant aggregated Beriglobin and no CSA; detected with anti-human IgG(H+L)-PE; secondary antibody alone (SM101_sek AK.fcs) has median 137
[10] = biological target: membrane-bound human FcγRIIB on Raji cells (human) (UniProt P31994); assay: FACS on Raji cells (FACS021), constant aggregated IgG; competitor SM101 Ref. Std. 0.0625 µg/µL
[11] = biological target: membrane-bound human FcγRIIB on Raji cells (human) (UniProt P31994); assay: FACS on Raji cells, aggregated Beriglobin at 2.5 (µg/µL)
[12] = biological target: membrane-bound human FcγRIIB on Raji cells (human) (UniProt P31994); assay: FACS: 0.1E6 Raji cells (FcγRIIB) with 2.5 µg aggregated Beriglobin at the stated pH; 1/200 anti-human IgG(H+L)-PE; drawn table, secondary antibody control not subtracted; pH 6.7
[13] = biological target: membrane-bound human FcγRIIB on Raji cells (human) (UniProt P31994); assay: FACS on Raji cells (FACS007), constant aggregated IgG; competitor SM101 0.03125 µg/µL
[14] = biological target: membrane-bound human FcγRIIB on Raji cells (human) (UniProt P31994); assay: FACS on Raji cells (FACS021), constant aggregated IgG; competitor SM101 Ref. Std. 0.125 µg/µL
[15] = biological target: membrane-bound human FcγRIIB on Raji cells (human) (UniProt P31994); assay: FACS on Raji cells (FACS021), constant aggregated IgG; competitor SM101 IMP 0.03125 µg/µL

Sequence of UniProt P31994 (P31994 43-310): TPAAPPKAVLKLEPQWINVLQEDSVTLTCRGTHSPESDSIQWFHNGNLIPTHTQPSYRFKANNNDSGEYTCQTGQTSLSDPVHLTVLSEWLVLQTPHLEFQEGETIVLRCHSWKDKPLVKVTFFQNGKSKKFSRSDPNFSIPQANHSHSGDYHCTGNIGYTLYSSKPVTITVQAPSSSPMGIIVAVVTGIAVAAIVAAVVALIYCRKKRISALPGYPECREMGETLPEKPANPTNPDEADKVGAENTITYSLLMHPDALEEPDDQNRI

Median Signal [1]: 6930
Median Signal [3]: 182
Median Signal [4]: 478
Median Signal [5]: 238
Median Signal [6]: 2270
Median MFI at pH 6.7 (left panel) [7]: 578
Median MFI at pH 6.5 [8]: 703
Median PE-A fluorescence, 0 µg/µL CSA [9]: 3480
Median Signal [10]: 921
Median MFI [11]: 1350 and 1500 and 1000
Median MFI at pH 6.7 [12]: 578
Median Signal [13]: 1240
Median Signal [14]: 362
Median Signal [15]: 1780
Substance: aggregated human IgG (aggregated Beriglobin, aggregated fraction isolated by size exclusion chromatography) (antibody)
percent of gated viable cells in the upper right quadrant of the dot plot (PE-A above about 10^3) [2]: 84.7
